These results are taken from article PMC8096265, “A functional LSD1 coregulator screen reveals a novel transcriptional regulatory cascade connecting R-loop homeostasis with epigenetic regulation” (Nucleic Acids Research, 2021).

This assay addresses T1, GST-DDX19A (recombinant full-length DEAD-box helicase 19A) (UniProt Q9NUU7 1-478).
T1 construct: DEAD-box helicase 19A (DDX19A), expressed from pGEX-DDX19A; Printed both as GST-DDX19A and as DDX19A-GST; no cleavage of GST is described, and the array is detected by anti-GST. pGEX vectors usually put GST at the N-terminus (surmise); also called DDX19A-GST; recombinant DDX19A
T1 sequence (looked up): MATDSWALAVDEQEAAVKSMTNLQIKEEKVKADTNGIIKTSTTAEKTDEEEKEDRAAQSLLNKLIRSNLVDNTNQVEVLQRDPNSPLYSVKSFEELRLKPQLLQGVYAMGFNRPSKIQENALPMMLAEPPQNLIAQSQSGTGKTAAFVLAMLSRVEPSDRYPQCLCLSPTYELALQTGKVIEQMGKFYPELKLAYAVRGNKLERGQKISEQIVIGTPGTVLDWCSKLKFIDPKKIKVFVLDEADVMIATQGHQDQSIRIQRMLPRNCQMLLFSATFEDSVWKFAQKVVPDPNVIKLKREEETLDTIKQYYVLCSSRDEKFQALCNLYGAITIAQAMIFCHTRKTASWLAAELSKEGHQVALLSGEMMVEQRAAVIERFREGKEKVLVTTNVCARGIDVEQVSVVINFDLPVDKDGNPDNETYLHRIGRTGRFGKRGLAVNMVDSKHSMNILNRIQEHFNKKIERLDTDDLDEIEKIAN
The experiment in a line: fluorescence polarisation; fluorescence anisotropy; 50 nM FITC-labelled H3.1 (16-34) peptide in 20 mM HEPES pH 7.5, 100 mM KCl, 0.1 mM DTT, 10% glycerol; DDX19A added stepwise; 23°C; fit to a simple binding equilibrium. To be noted: both partners purified. On the technique in general: Polarisation of emitted light reports the rotation of a fluorescent probe.

Ends that are not written are not given here.

B1: FITC-labelled H3.1 peptide (residues 16-34), unmodified (peptide)
chain: PRKQLATKAARKSAPATGG
modifications: also: FITC label, position not given here
Consider B1, for which the Kd (as a rule, the equilibrium constant for the complex coming apart) was over 1 µM.
